The source of these data is publication PMC3961180, “The Kil Peptide of Bacteriophage λ Blocks Escherichia coli Cytokinesis via ZipA-Dependent Inhibition of FtsZ Assembly” (PLoS Genetics, 2014).

This data set deals with the molecule itself. The experiment in a line: co-sedimentation; FtsZ 5 µM, His6-FLAG-Kil 10 µM, His6-tagged ZipAC domains 5 µM, GTP 1 mM in polymerization buffer; 1 mM CaCl2 for calcium-induced bundling; TLA 100.3 rotor at 70,000 rpm; supernatant and pellet on Coomassie-stained gels.

B1: E. coli FtsZ (natural protein, UniProt P0A9A6 1-383, looked up)
chain: MFEPMELTNDAVIKVIGVGGGGGNAVEHMVRERIEGVEFFAVNTDAQALRKTAVGQTIQIGSGITKGLGAGANPEVGRNAADEDRDALRAALEGADMVFIAAGMGGGTGTGAAPVVAEVAKDLGILTVAVVTKPFNFEGKKRMAFAEQGITELSKHVDSLITIPNDKLLKVLGRGISLLDAFGAANDVLKGAVQGIAELITRPGLMNVDFADVRTVMSEMGYAMMGSGVASGEDRAEEAAEMAISSPLLEDIDLSGARGVLVNITAGFDLRLDEFETVGNTIRAFASDNATVVIGTSLDPDMNDELRVTVVATGIGMDKRPEITLVTNKQVQQPVMDRYQQHGMAPLTQEQKPVAKVVNDNAPQTAKEPDYLDIPAFLRKQAD
notes: cell division protein FtsZ, E. coli; expressed from pET11a-ftsZ (from H. Erickson); No tag is named for this construct; also called FtsZWT; source: E. coli BL21(DE3) pET11a-ftsZ (WM971), purified (successive 20% and 30% ammonium sulfate cuts)
Consider B1, for which the binding result is recorded as “binds”.
